The source of these data is paper PMC8604303.

A value given as a limit tells only on which side of the number the result lay.

Assay [1] has as its target C9 TMH-1 lock mutant (C9_(TMH-1 lock), F262C V405C) (human) (UniProt P02748).
Assay [2] shares this target. The source holds these as a separate data set.
For assay [3], the target named is C5b-8 (MAC precursor of C5b, C6, C7 and C8) assembled on E. coli (human) (UniProt P01031). The experiment in a line: flow cytometry on cells; as a1 but Cy5-labelled C9 added with 10 mM DTT (the methods give 20 nM C8 added 15 min before C9 at RT). (A flow cytometer gives signals particle by particle.)
Assay [4] deals with C9 TMH-1 lock mutant (C9_(TMH-1 lock), F262C V405C) (human) (UniProt P02748). The assay can be described thus: SDS-PAGE of SDS-stable polymeric-C9, in-gel Cy5 fluorescence; as a3 but 20 nM Cy5-labelled C9 incubated with the C5b-8 labelled bacteria in 10 mM DTT.
In assay [5] the target is C5b-8 (MAC precursor of C5b, C6, C7 and C8) assembled on E. coli (human) (UniProt P01031). The assay can be described thus: flow cytometry on cells; complement-sensitive E. coli (MG1655, BW25113, MC1061, 547563.1, CGSC7740 wildtype) in 3% C9-depleted serum with 25 nM Cy5-labelled C9 for 30 min at 37 C; Syto9 trigger; MFI.
Assay [6] shares this target. The assay can be described thus: flow cytometry on cells; complement-resistant E. coli that express LPS O-Ag (552059.1, 552060.1, 567705.1, CGSC7740 wbbL+) in 3% C9-depleted serum with 25 nM Cy5-labelled C9 (up to 10-fold more on 552059.1) for 30 min at 37 C; MFI.
The target is the same in assay [7]. The assay can be described thus: flow cytometry on cells; E. coli MG1655 labelled with C5b-7 (10% C8-depleted serum, 30 min), washed, 10 nM C8 for 15 min, then 20 nM Cy5-labelled C9 for 30 min, no DTT; RPMI + 0.05% HSA; geoMFI.
Assay [8] shares this target. The experiment in a line: flow cytometry on cells; E. coli MG1655 labelled with C5b-7, washed, 10 nM C8 and a concentration range of Cy5-labelled C9 for 30 min; geoMFI.

Chain of wildtype C9 (C9wt) (P02748 22-559): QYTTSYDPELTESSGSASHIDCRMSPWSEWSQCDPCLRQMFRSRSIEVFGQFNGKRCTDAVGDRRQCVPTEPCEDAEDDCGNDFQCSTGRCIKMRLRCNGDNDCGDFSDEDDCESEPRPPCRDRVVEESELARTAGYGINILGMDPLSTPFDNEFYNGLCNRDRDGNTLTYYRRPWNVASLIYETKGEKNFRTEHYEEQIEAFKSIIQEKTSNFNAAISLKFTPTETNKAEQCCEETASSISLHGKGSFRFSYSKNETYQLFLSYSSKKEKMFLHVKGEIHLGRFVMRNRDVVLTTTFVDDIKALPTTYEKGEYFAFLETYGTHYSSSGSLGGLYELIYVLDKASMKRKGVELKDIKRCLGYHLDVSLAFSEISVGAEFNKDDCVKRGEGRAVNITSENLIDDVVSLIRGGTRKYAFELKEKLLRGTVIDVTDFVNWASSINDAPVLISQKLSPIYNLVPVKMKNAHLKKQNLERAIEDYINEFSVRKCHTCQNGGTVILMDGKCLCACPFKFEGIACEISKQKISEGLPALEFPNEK

“C9 TMH-1 lock mutant (C9_(TMH-1 lock), F262C V405C) (from UniProt P02748 22-559) (natural protein)”: in assay [1], the bacterial viability (CFU) of E. coli MG1655 in 3% C9-depleted serum with 25 nM C9 after 30 min, against C9wt stood at 1000 fold; the outer membrane damage (DiOC2) and inner membrane damage (Sytox) of E. coli MG1655 in 3% C9-depleted serum with 25 nM C9, delay against C9wt was determined as 30 min. In addition, the bacterial viability (CFU) of C5b-8 labelled E. coli MG1655 with 100 nM C9, decrease compared to C5b-8 alone in assay [2] amounted to 10 fold. In assay [3], this substance came in with a fold binding with DTT against C9 (TMH-1 lock) without DTT of 3 fold and a fold lower binding against C9wt with DTT of 2 to 3 fold. The substance also displayed a fold lower polymeric-C9 detection against C9wt with DTT in assay [4] of 2 to 3 fold.

In assay [5], “wildtype C9 (C9wt) (from UniProt P02748 22-559) (natural protein)” had a fold binding against C9 (TMH-1 lock) of 5 to 15 fold and a fold binding against C9 (TMH-1 lock), on CGSC7740 wildtype of 12 fold. Besides, in assay [6], the fold binding against C9 (TMH-1 lock), on 552059.1 with up to 10-fold more C9 lay in the range of 2 to 3 fold and the fold binding against C9 (TMH-1 lock), on CGSC7740 wbbL+ stood at 2.5 fold. In addition, in assay [7], the fold binding against C9 (TMH-1 lock) came to 10 fold. In addition, the fold binding against C9 (TMH-1 lock) in assay [8] is < 10 fold.
